These results are taken from publication doi:10.1101/2025.10.03.680009.

Assay [1] deals with GST-PreScission protease. The assay can be described thus: SEC. A general note: In gel filtration, larger molecules generally elute earlier.
Assay [2] addresses GST-TbPEX6 (full-length) (Trypanosoma brucei). The assay can be described thus: AlphaScreen or HTRF.
Assay [3] concerns the target tag-free TbPEX6 (Trypanosoma brucei). The assay can be described thus: SEC.

pKd: −log10 of the molar value.

In general, stoichiometry N refers to a count of units in the complex or per binding partner. In the case of GST-PreScission protease (enzyme), in assay [1], the stoichiometry N was determined as 2.
The pKd is the negative decadic logarithm of the Kd, by convention in mol/L. A lower pKd goes with a large Kd. Substance “His6-TbPEX15ΔTM (1-320aa) (domain or fragment)” had a pKd in assay [2] of 7.99. The stoichiometry N in assay [3] was 1.
Turning to “Tag-free TbPEX15ΔTM (1-320aa) (domain or fragment)”, the pKd in assay [2] is 7.52 to 7.82.
